# Measurements: patent publication US10273464B2, “Methods and isolated protein compositions for isoprenoid diphosphate synthesis” (The Salk Institute for Biological Studies, priority 2009, dated 2019)
# Changes are numbered by the printed parent chain. Names may count otherwise. “Also recorded” adds a separate entry of the source. Read-outs that look alike come from different tables or passages of the source.
# B1: IPK-Mmaripaludis: isopentenyl phosphate kinase homolog from Methanococcus maripaludis, SEQ ID NO:8 (protein, listed as Methanococcus maripaludis)
# chain: MFAILKLGGSILCDKNVPYSINWENLENIAIEIKEAIEYYSSKNEDFKLIIVHGGGSFGHPVAKKYLKNEKFEDMGKGYWEIQKAMRKFNNIVIEELQNFEPAVSIQASSFITFNHKSNLHFDTNAIEKMLDKGLIPVIHGDIVIDEKTDNFKIFSGDHALPFLSKKLNPDLSLHASDVDGVWDSEFKIIENINSKNIEDVLKSLKPSNKEDVTGGMHLKVMECYNLGIETIIFNGNKKRNIYNALLKNVKGTLIN
# B2: UMPK from Sulfolobus solfataricus: uridine monophosphate kinase from Sulfolobus solfataricus, literature comparison (Jensen et al., 2007) (protein, UniProt Q97ZE2 1-227, looked up)
# Uridylate kinase: MMNIILKISGKFFDEDNVDNLIVLRQSIKELADNGFRVGIVTGGGSTARRYIKLAREIGIGEAYLDLLGIWASRLNAYLVMFSLQDLAYMHVPQSLEEFIQDWSHGKVVVTGGFQPGQSTAAVAALVAEASSSKTLVVATNVDGVYEKDPRIYADVKLIPHLTTQDLRKILEGSQSVQAGTYELLDPLAIKIVERSKIRVIVMNYRKLNRIIDILKGEEVSSIIEPV
# B3: IPK-Mjannaschii H60A: M. jannaschii IPK with His60 mutated to Ala (protein, UniProt Q60352 1-260, looked up, variant H60A)
# Isopentenyl phosphate kinase: MLTILKLGGSILSDKNVPYSIKWDNLERIAMEIKNALDYYKNQNKEIKLILVHGGGAFGAPVAKKYLKIEDGKKIFINMEKGFWEIQRAMRRFNNIIIDTLQSYDIPAVSIQPSSFVVFGDKLIFDTSAIKEMLKRNLVPVIHGDIVIDDKNGYRIISGDDIVPYLANELKADLILYATDVDGVLIDNKPIKRIDKNNIYKILNYLSGSNSIDVTGGMKYKIDMIRKNKCRGFVFNGNKANNIYKALLGEVEGTEIDFSE
# B4: F83A/I86A/I156A: IPK triple mutant F83A, I86A, I156A (protein)
# chain: B3 Isopentenyl phosphate kinase with A60H, F83A, I86A, I156A, D223E
# B5: IPK-Mjannaschii H60N: M. jannaschii IPK with His60 mutated to Asn (protein, UniProt Q60352 1-260, looked up, variant H60N)
# Isopentenyl phosphate kinase: B3 Isopentenyl phosphate kinase with A60N
# B6: I156V: IPK mutant, residue 156 Ile to Val (protein, listed as Methanocaldococcus jannaschii)
# chain: B3 Isopentenyl phosphate kinase with A60H, I156V, D223E
# B7: IPK-Mjannaschii: isopentenyl phosphate kinase from Methanocaldococcus jannaschii, SEQ ID NO:1, wild type (protein, listed as Methanocaldococcus jannaschii)
# chain: B3 Isopentenyl phosphate kinase with A60H, D223E
# B8: I86A/I146A: IPK double mutant I86A and I146A (protein)
# chain: B3 Isopentenyl phosphate kinase with A60H, I86A, I146A, D223E
# B9: IPK-Mjannaschii H60Q: M. jannaschii IPK with His60 mutated to Gln (protein, UniProt Q60352 1-260, looked up, variant H60Q)
# Isopentenyl phosphate kinase: B3 Isopentenyl phosphate kinase with A60Q
# B10: I146V: IPK mutant, residue 146 Ile to Val (protein, listed as Methanocaldococcus jannaschii)
# chain: B3 Isopentenyl phosphate kinase with A60H, I146V, D223E
# B11: I146A: IPK single mutant, residue 146 Ile to Ala (protein, listed as Methanocaldococcus jannaschii)
# chain: B3 Isopentenyl phosphate kinase with A60H, I146A, D223E
# B12: I86A: IPK single mutant, residue 86 Ile to Ala (protein, listed as Methanocaldococcus jannaschii)
# chain: B3 Isopentenyl phosphate kinase with A60H, I86A, D223E
# Experiments:
# [1] = pyruvate kinase-lactate dehydrogenase coupled assay, IP as variable substrate; assay type: biochemical; conditions: 25° C.; for kinase activity (rate of IP turnover): relevant concentrations of IP and enzyme
# Description: All specific activity and kinetic measurements were performed using the pyruvate kinase-lactate dehydrogenase coupled assay with reference to a previously established protocol (Lindsley, 2001, Methods Mol. Biol. 95:57-64.). The reaction includes the following components in a 200 ul volume: 7 U pyruvate kinase, 10 U lactate dehydrogenase, 2 mM phosphoenolpyruvate, 0.16 mM NADH, 50 mM TRIS HCl pH 8.0, 100 mM KCl, 8 mM MgCl2, 4 mM ATP, and variable concentrations of IP (purchased from Larodan Fine Chemicals). The reaction was initiated by the addition of IPK (0.15 ug) and was followed by observing the depletion of NADH at 340 nm over time, expressed as Δ(AU340)/Δt, which was converted to Δ(ADP)/Δt. These values were then plotted against substrate concentration in GraphPad Prism® (Version 5.01 for Windows) to compute the kinetic parameters kcat and Km using the “nonlinear regression enzyme kinetic analysis” option.
# From the results discussed above, it is evident that His60 from IPK plays an important role in both substrate and product binding. This is accomplished through a hydrogen bonding interaction between the Nε2 atom of His60 and a non-bridging O atom from the terminal phosphate group on either the substrate (IP) or the product (IPP). From all crystal structure data, it is apparent that the Nε2 group of His60 (and not the Nδ1 group) is relevant for binding and may therefore be reasonably assumed by one skilled in the art to be relevant for IPK-mediated catalysis. To confirm this hypothesis, His60 was mutated to Ala, Asn, and Gln. The Asn and Gln mutations were made based on the rationale that their side chains contain N atoms that are isosteric with the Nδ1 and Nε2 groups on His, respectively.
# [2] = pyruvate kinase-lactate dehydrogenase coupled assay, Km for ATP; assay type: biochemical; conditions: 25° C.
# Description: All specific activity and kinetic measurements were performed using the pyruvate kinase-lactate dehydrogenase coupled assay with reference to a previously established protocol (Lindsley, 2001, Methods Mol. Biol. 95:57-64.). […] The reaction was initiated by the addition of IPK (0.15 ug) and was followed by observing the depletion of NADH at 340 nm over time, expressed as Δ(AU340)/Δt, which was converted to Δ(ADP)/Δt. These values were then plotted against substrate concentration in GraphPad Prism® (Version 5.01 for Windows) to compute the kinetic parameters kcat and Km using the “nonlinear regression enzyme kinetic analysis” option.
# [3] = read-out: Km value for ATP; cited from earlier work
# [4] = read-out: Km value for UMP; cited from earlier work
# [5] = coupled IPK / 5-epi-aristolochene synthase (TEAS) vial assay, GC-MS, FP to FPP conversion; assay type: biochemical; conditions: 10 μM IPK, 150 μM FP, ATP, Mg, pH 8.0, 20 minutes at 55° C., 5-epi-aristolochene quantified by GC-MS
# Description: FIG. 10: Assays of IPK and mutants. The single mutants of IPK, I86A and I146A, and the double mutant I86A/I146A, were tested with the C15-substrate farnesyl monophosphate (FP) using a coupled assay with a terpene cyclase (TEAS). In the first step of the reaction, IPK was incubated with magnesium, ATP, and FP at pH 8.0 for 20 minutes at 55° C. (assuming sufficient time for conversion of FP to FPP). In the second step of the reaction, a small sample of the first reaction was added to a glass vial containing magnesium and a sesquiterpene cyclase known as tobacco 5-epi-aristolochene synthase (TEAS), and this reaction was incubated overnight at 25° C. Assuming complete conversion of FPP to 5-epi-aristolochene, the reaction was extracted with ethyl acetate and the amount of 5-epi-aristolochene was quantified by GC-MS analysis.
# FIGS. 11A-11B: Farnesyl phosphate (FP) phosphorylation by IPK chain length mutants. FIG. 11A: FIG. 11A depicts the coupled IPK-sesquiterpene synthase reaction used to test for FP transphosphorylation. FIG. 11B: FIG. 11B depicts comparative bar graph showing several IPK mutants qualitatively tested for their ability to convert FP to FPP, expressed as a percentage of maximal production of 5-epi-aristolocene produced from IPK-generated FPP using wild-type IPK and identical concentrations of wild-type tobacco 5-epi-aristolochene synthase incubated for equivalent lengths of time.
# IPK mutants (at a final concentration of 10 μM) were incubated in a 50 μl reaction with 150 μM farnesyl monophosphate (FP), 7 mM MgCl2, 4 mM ATP, and 50 mM TRIS.HCl pH 8.0 for 20 minutes at 55° C. 10 μl of this reaction was then added to a 500 μl reaction containing 45 ug of the terpene cyclase 5-epi-aristolochene synthase (TEAS) and 10 mM MgCl2 in a 3-component buffer system (25 mM MES, 50 mM TRIS.HCl, 25 mM CAPS) at pH 7.0. A method known as the “vial assay” (O'Maille et al., 2004, Anal. Biochem. 335:210-217) was employed by overlaying this aqueous layer with 500 μl of ethyl acetate, incubating overnight at 25° C., and vortexing to extract the terpene product into the organic layer prior to quantitative GC-MS analysis. Both negative and positive control reactions were conducted as follows. For the negative control, no IPK was added to the first reaction. For the positive control, […] of FPP (equivalent to the amount that would be present assuming complete FP to FPP turnover) was added to the TEAS reaction.
# Similar studies were conducted using FPP modeled into the active site of IPK. The reaction of IPK on FP to form FPP is depicted in FIG. 10. The I146A I86A single-residue mutations, and the […] double mutation were tested with the C15-substrate farnesyl monophosphate (FP) using a coupled assay with a terpene cyclase (TEAS). In the first step of the reaction, IPK was incubated with magnesium, ATP, and FP at pH 8.0 for 20 minutes at 55° C., which was judged as sufficient time for conversion of FP to FPP. In the second step of the reaction, a small sample of the first reaction was added to a glass vial containing magnesium and a sesquiterpene cyclase known as tobacco 5-epi-aristolochene synthase (TEAS), and this reaction was incubated overnight at 25° C. Assuming complete conversion of FPP to 5-epi-aristolochene, the reaction was extracted with ethyl acetate and the amount of 5-epi-aristolochene was quantitated by GC-MS analysis.
# [6] = measured in one instance (other than Table 4)
molecule,measurement,setting,value
B1,Km,[1],21.4 ± 4.2 µM
same,kcat,[1],13.1 ± 0.5 s⁻¹
same,Km,[1]; [6],16.1 µM
same,Km,[2]; [6],96 ± 6 µM
B2,Km,[3],81 µM
same,Km,[4],14 µM
B3,kinase activity (rate of IP turnover),[1],immeasurable; also recorded: no measurable activity
B4,conversion (phosphorylation) of FP to FPP,[5],greatest turnover
B5,kinase activity (rate of IP turnover),[1],immeasurable; also recorded: no measurable activity
B6,conversion (phosphorylation) of FP to FPP,[5],decreased activity
B7,Km,[1],4.3 ± 0.6 µM
same,kcat,[1],1.46 ± 0.03 s⁻¹
same,conversion (phosphorylation) of FP to FPP,[5],significantly less phosphorylation
same,Km,[2],198 µM
B8,conversion (phosphorylation) of FP to FPP,[5],significant percentage of substrate
same,conversion (phosphorylation) of FP to FPP,[5]; listed as I146A/I146A,significant percentage of FP
B9,Km,[1],34.5 µM
same,kcat,[1],0.040 ± 0.002 s⁻¹
same,kinase activity (rate of IP turnover),[1],able to turn over a measurable amount of IP
same,"Km for IP, fold larger than wild type",[1]; versus wild type IPK,8 fold
same,"kcat, fold slower than wild type",[1]; versus wild type IPK,~40 fold
same,kcat,[1]; listed as H60Q,0.04 s⁻¹
same,Km,[2],559 µM
B10,conversion (phosphorylation) of FP to FPP,[5],decreased activity
B11,conversion (phosphorylation) of FP to FPP,[5],significant percentage of FP; also recorded: significant percentage of substrate
B12,conversion (phosphorylation) of FP to FPP,[5],significant percentage of FP; also recorded: significant percentage of substrate
